Values belong to the binder of their own block, whether it stands above or below them.
How the values were obtained:
cynomolgus HER3 antigen [1] = molecular target: T1, cynomolgus HER3 antigen (cynomolgus monkey, UniProt G7PIG5 20-643); experiment: ELISA, coated cy HER3
T1 construct: In-house antigen; also called cynomolgus antigen
Protocol: (§1) Antibody-antigen binding was measured by ELISA with coated antigens. Human antigens were obtained from Sino Biologicals. All other antigens were produced in-house by transient expression in CHO or HEK293 cells. Chimeric and humanized antibodies, as well as an isotype control antibody, were incubated with the coated antigens at different concentrations. After wash, bound antibodies were detected by HRP-(horse radish peroxidase)-conjugated secondary antibodies.

[2] = molecular target: T2, human HER2 antigen (Sino Biologicals) (human, UniProt P04626 23-652); experiment: ELISA, coated hu HER2
T2 construct: Bought soluble antigen; also called human antigen
Protocol: as §1

[3] = molecular target: T3, human HER3 antigen (Sino Biologicals) (human, UniProt P21860 20-643); experiment: ELISA, coated hu HER3
T3 construct: Bought soluble antigen; also called human antigen
Protocol: as §1

human HER4 antigen = molecular target: T4, human HER4 antigen (human, UniProt Q15303 26-649, limits assumed); experiment: ELISA, coated hu HER4
T4 construct: Antigen coated for ELISA
T4 sequence (looked up): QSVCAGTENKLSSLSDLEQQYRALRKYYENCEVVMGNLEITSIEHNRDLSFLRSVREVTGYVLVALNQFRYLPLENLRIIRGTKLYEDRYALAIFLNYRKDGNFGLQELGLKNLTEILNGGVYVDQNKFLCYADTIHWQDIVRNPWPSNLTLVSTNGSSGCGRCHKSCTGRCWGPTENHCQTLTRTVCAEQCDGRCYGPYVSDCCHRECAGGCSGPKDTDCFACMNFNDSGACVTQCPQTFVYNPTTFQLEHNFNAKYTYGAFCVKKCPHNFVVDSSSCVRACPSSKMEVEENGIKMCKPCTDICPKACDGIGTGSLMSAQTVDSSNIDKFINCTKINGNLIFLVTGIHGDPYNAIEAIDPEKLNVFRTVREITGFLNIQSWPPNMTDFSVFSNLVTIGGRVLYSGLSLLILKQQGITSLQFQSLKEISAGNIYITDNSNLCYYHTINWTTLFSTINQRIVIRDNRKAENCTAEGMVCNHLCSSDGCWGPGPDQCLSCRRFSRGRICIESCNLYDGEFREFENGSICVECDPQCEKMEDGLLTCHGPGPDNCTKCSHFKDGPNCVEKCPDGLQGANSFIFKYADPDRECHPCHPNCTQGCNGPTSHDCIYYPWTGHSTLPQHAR
Protocol: as §1

mouse EGFR antigen = molecular target: T5, mouse EGFR antigen (mouse, UniProt Q01279 25-647, limits assumed); experiment: ELISA, coated mu EGFR
T5 construct: In-house antigen coated for ELISA; also called mouse antigen; murine EGFR
Protocol: as §1

mouse HER2 antigen = molecular target: T6, mouse HER2 antigen (mouse, UniProt P70424 23-653, limits assumed); experiment: ELISA, coated mu HER2
T6 construct: In-house antigen coated for ELISA; also called mouse antigen; murine HER2
T6 sequence (P70424 23-653 limits assumed): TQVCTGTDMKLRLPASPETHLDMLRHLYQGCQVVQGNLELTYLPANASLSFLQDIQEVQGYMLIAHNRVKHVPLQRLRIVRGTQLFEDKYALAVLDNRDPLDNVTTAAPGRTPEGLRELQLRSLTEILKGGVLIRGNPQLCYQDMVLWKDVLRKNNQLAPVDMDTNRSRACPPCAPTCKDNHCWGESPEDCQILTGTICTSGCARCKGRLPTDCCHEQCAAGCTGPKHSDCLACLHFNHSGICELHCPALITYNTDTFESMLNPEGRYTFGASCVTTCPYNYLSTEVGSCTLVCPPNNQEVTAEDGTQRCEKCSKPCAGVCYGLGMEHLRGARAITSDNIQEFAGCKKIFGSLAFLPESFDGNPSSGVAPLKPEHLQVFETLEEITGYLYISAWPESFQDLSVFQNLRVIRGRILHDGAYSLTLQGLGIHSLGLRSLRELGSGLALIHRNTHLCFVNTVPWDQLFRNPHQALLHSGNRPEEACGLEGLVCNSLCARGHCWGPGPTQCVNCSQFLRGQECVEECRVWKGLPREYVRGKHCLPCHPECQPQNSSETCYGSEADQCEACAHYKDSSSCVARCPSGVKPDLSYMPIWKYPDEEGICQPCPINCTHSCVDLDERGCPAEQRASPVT
Protocol: as §1

mouse HER3 antigen = molecular target: T7, mouse HER3 antigen (mouse, UniProt Q61526 20-641, limits assumed); experiment: ELISA, coated mu HER3
T7 construct: In-house antigen coated for ELISA; also called mouse antigen; murine HER3
T7 sequence (Q61526 20-641 limits assumed): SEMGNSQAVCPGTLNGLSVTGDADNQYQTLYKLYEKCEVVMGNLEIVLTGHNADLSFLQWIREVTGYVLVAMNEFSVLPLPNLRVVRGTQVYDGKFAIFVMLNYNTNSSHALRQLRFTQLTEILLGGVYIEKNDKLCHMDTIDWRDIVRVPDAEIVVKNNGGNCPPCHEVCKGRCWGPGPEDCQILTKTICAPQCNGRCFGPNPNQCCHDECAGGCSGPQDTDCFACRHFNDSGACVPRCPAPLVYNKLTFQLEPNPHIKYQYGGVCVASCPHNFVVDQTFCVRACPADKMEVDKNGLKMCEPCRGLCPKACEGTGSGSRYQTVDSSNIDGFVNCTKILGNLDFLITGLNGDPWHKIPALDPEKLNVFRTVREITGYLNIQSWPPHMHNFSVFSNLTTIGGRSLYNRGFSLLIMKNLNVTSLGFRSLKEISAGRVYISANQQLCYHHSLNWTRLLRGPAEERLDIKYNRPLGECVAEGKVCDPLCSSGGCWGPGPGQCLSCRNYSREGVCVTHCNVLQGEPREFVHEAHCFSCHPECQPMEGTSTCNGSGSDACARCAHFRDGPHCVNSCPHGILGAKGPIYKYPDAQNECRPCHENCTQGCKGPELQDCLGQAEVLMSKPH
Protocol: as §1

murine HER4 antigen = molecular target: T8, murine HER4 antigen (mouse, UniProt Q61527 26-652, limits assumed); experiment: ELISA, coated mu HER4
T8 construct: In-house antigen coated for ELISA; also called mouse HER4
T8 sequence (looked up): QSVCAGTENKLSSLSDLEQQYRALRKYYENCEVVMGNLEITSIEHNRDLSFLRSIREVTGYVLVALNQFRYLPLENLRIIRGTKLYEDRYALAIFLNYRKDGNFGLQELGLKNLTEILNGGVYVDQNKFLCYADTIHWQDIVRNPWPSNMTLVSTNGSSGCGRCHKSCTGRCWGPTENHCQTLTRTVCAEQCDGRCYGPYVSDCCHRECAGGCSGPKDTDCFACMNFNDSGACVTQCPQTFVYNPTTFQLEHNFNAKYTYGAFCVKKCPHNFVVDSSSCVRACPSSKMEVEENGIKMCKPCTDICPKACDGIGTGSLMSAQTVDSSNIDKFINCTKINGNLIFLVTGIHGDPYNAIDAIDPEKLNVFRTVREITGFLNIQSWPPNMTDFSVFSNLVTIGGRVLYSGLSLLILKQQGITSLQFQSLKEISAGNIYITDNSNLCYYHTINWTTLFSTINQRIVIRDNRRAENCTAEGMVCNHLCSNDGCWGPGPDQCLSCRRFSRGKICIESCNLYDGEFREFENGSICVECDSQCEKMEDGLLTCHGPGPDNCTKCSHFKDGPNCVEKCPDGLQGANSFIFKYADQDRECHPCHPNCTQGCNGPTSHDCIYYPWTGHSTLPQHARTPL
Protocol: as §1

cynomolgus EGFR antigen [4] = molecular target: T9, cynomolgus EGFR antigen (cynomolgus monkey, UniProt A0A2K5WK39 25-645); experiment: SPR (ProteOn XPR36), IgG captured by anti-human Fc, soluble monovalent antigen, 1:1 fit
T9 construct: In-house antigen; also called cynomolgus antigen
Protocol: (§2) Kinetic binding analysis of the purified humanized variants was performed on a ProteOn™ XPR36 biosensor (BioRad, USA) employing an IgG capture assay as described by Canziani et al. (Anal. Biochem. (2004) 325:301-307) that allows for measurement of antibody affinities of whole IgG molecules against soluble antigen under monovalent conditions. Briefly, approximately 5000 resonance units (RU) of a monoclonal mouse anti-human IgG Fc antibody (GE Healthcare, Denmark) was conjugated to a GLC chip surface (BioRad, USA) according to the manufacturer's instructions, followed by capture of individual antibodies of the invention or a negative control on the anti-Fc sensor surface. […] Next, 250 μl monovalent antigen (Sino Biologicals) was injected at a flow rate of 50 μl/min in serial threefold dilutions from 100 nM stock to generate response curves. The chip surface was regenerated between cycles by stripping the captured antibody/antigen complexes off the surface with a 10-second injection of 3 M MgCl₂ (GE Healthcare, Denmark) repeated three times. Finally, binding responses were fitted to a Langmuir 1:1 binding model for calculation of the on-rate (kon or ka), off-rate (koff or kd) and affinity (KD) constants using double referencing.

cynomolgus EGFR antigen [5] = molecular target: T9, cynomolgus EGFR antigen; experiment: ELISA, coated cy EGFR
Protocol: as §1

[6] = molecular target: T10, human EGFR antigen (Sino Biologicals) (human, UniProt P00533 25-645); experiment: ELISA, coated hu EGFR
T10 construct: Bought soluble antigen; also called human antigen
Protocol: as §1

[7] = molecular target: T3, human HER3 antigen (Sino Biologicals); experiment: SPR (ProteOn XPR36), IgG captured by anti-human Fc, soluble monovalent antigen, 1:1 fit
Protocol: as §2

cynomolgus HER3 antigen [8] = molecular target: T1, cynomolgus HER3 antigen; experiment: as above
Protocol: as §2

[9] = molecular target: cynomolgus HER2 antigen (cynomolgus monkey); experiment: as above

T1 sequence (G7PIG5 entry or part of it): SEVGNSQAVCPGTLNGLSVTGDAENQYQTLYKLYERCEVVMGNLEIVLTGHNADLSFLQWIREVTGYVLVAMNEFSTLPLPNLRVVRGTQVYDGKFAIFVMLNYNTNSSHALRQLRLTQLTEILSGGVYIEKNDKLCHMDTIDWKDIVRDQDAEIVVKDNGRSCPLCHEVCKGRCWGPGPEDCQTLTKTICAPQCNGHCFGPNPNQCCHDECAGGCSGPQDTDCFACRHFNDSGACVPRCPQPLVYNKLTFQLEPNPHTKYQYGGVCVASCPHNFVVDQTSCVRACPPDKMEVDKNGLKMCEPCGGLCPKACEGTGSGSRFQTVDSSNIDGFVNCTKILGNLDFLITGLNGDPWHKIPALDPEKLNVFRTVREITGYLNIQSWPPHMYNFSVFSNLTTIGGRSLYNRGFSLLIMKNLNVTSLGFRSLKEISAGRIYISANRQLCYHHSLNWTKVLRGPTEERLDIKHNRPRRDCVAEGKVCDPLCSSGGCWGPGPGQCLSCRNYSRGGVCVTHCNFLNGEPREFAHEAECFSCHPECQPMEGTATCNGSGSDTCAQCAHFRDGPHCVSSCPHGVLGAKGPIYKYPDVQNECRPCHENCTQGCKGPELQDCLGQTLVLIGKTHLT

B1: chimeric anti-EGFR antibody 1277 (antibody, V domains shown)
VH: EVQLVESGGGLVKPGESLKLSCAASGFAFSYSDMSWVRQTPEKRLEWVAYMSSAGDVTFYSDTVKGRFTISRDNAKNTLYLQVSSLKSEDTAIYYCVRHRDVAMDYWGQGTSVTVS
VL: DVVMTQTPLSLPVSLGDQASISCRSSQSLVHSNGNTYLHWYLQKPGQSPKLLIYKVSNRFSGVPDRFSGSGSGTDFTLKISRVEAEDLGVYFCSQSTHVPTFGGGTKLEIKR
notes: the light chain entry is full length
binding result (cynomolgus HER3 antigen [1]): no binding (tested: 40 nM)
binding result [2]: no binding (tested: 40 nM)
binding result [3]: no binding (tested: 40 nM)
binding result (human HER4 antigen): no binding (tested: 40 nM)
binding result (mouse EGFR antigen): no binding (tested: 40 nM)
binding result (mouse HER2 antigen): no binding (tested: 40 nM)
binding result (mouse HER3 antigen): no binding (tested: 40 nM)
binding result (murine HER4 antigen): no binding (tested: 40 nM)
Kd (cynomolgus EGFR antigen [4]): 0.59 nM

B4: chimeric anti-HER2 antibody 4384 (antibody, V domains shown)
VH: QVQLQQPGTELVKPGASVKLSCKASGYTFTSHWMHWVKQRPGQGLEWIGNINPSNGGTNYNEKFKSRATLTVDKASSTAYMQLSSLTSEDSAVYYCARAYYDFSWFVYWGQGTLVTVS
VL: DIQMTQTSSSLSASLGDRVTISCRSSQDISNYLNWYQQKPDGTVKLLMYISRLHSGVPSRFSGSGSGTEYSLTISNLEQEDIATYFCQQGNTLPLTFGAGTKLELKR
notes: light chain entry is full length
binding result (cynomolgus EGFR antigen [5]): no binding (tested: 40 nM)
binding result (cynomolgus HER3 antigen [1]): no binding (tested: 40 nM)
binding result [6]: no binding (tested: 40 nM)
binding result [3]: no binding (tested: 40 nM)
binding result (human HER4 antigen): no binding (tested: 40 nM)
binding result (mouse EGFR antigen): no binding (tested: 40 nM)
binding result (mouse HER2 antigen): no binding (tested: 40 nM)
binding result (mouse HER3 antigen): no binding (tested: 40 nM)
binding result (murine HER4 antigen): no binding (tested: 40 nM)
Kd [9]: 2.9 nM
koff [9]: 0.0005 s⁻¹
kon [9]: 180000 M⁻¹ s⁻¹

B5: humanized anti-HER2 antibody 11145 (antibody, V domains shown)
VH: EVQLVESGGGLVKPGGSLRLSCAASGFTFSSYGMSWVRQAPGKGLEWVATISGGGSYTYYPDSVKGRFTISRDIAKSSLYLQMNSLRAEDTAVYYCARKGNYGNYGKLAYWGQGTTVTVSS
VL: DIQMTQSPSSLSASVGDRVTITCRASENIYSNLAWYQQKPGKAPKLLIYAATNLATGVPSRFSGSGSGTDYTLTISSLQPEDFASYYCQHFWGTPWTFGQGTKLEIK
binding result (cynomolgus EGFR antigen [5]): no binding (tested: 40 nM)
binding result (cynomolgus HER3 antigen [1]): no binding (tested: 40 nM)
binding result [6]: no binding (tested: 40 nM)
binding result [3]: no binding (tested: 40 nM)
binding result (human HER4 antigen): no binding (tested: 40 nM)
binding result (mouse EGFR antigen): no binding (tested: 40 nM)
binding result (mouse HER2 antigen): no binding (tested: 40 nM)
binding result (mouse HER3 antigen): no binding (tested: 40 nM)
binding result (murine HER4 antigen): no binding (tested: 40 nM)
Kd [9]: 12 nM
koff [9]: 0.00063 s⁻¹
kon [9]: 53000 M⁻¹ s⁻¹

Further lines, results first:

binding result (cynomolgus EGFR antigen [5]): no binding (tested: 40 nM)
binding result [6]: no binding (tested: 40 nM)
binding result [2]: no binding (tested: 40 nM)
binding result (human HER4 antigen): no binding (tested: 40 nM)
binding result (mouse EGFR antigen): no binding (tested: 40 nM)
binding result (mouse HER2 antigen): no binding (tested: 40 nM)
binding result (mouse HER3 antigen): no binding (tested: 40 nM)
binding result (murine HER4 antigen): no binding (tested: 40 nM)
Kd [7]: 0.18 nM
koff [7]: 0.00016 s⁻¹
kon [7]: 870000 M⁻¹ s⁻¹
Kd (cynomolgus HER3 antigen [8]): 0.19 nM
koff (cynomolgus HER3 antigen [8]): 0.00026 s⁻¹
kon (cynomolgus HER3 antigen [8]): 1.3e+06 M⁻¹ s⁻¹
B2: humanized anti-HER3 antibody 11052 (antibody, V domains shown)
VH: QVQLQESGPGLVKPSQTLSLTCTVSGYSITSAYYWNWIRQFPGKGVEWMGYIGYSGRNTYNPSLKNRVTISRDTSKNQFSLKLSSVTAADTAVYYCSREGDYGYSDYWGQGTLVTVSS
VL: DIQMTQSPSSLSASVGDRVTVTCRASQDINNYLNWYQQKPGKAVKLLIYYTSRLQSGVPSRFSGSGSGTDYTLTISSLQPEDFATYFCQQSETLPWTFGQGTKLEIK

binding result (cynomolgus EGFR antigen [5]): no binding (tested: 40 nM)
binding result (cynomolgus HER3 antigen [1]): no binding (tested: 40 nM)
binding result [6]: no binding (tested: 40 nM)
binding result [3]: no binding (tested: 40 nM)
binding result (human HER4 antigen): no binding (tested: 40 nM)
binding result (mouse EGFR antigen): no binding (tested: 40 nM)
binding result (mouse HER2 antigen): no binding (tested: 40 nM)
binding result (mouse HER3 antigen): no binding (tested: 40 nM)
binding result (murine HER4 antigen): no binding (tested: 40 nM)
B3: humanized anti-HER2 antibody 10704 (antibody, V domains shown)
VH: QVQLVQSGAEVKKPGASVKVSCKASGYTFTSHWMHWVRQAPGQGLEWMGNINPSSGGTNYNEKFKSRVTLTVDKSTSTAYMELSSLRSEDTAVYYCARAYYDFSWFVYWGQGTLVTVSS
VL: DIQMTQSPSSLSASVGDRVTITCRSSQDISNYLNWYQQKPGKAVKLLMYISRLHSGVPSRFSGSGSGTDYTFTISSLQPEDIATYYCQQGNTLPLTFGGGTKVEIK

— patent US20170165365A1 (SYMPHOGEN A S, published 2017)
